Laboratory results published in patent publication EP4772193A1 (Teijin Pharma Limited, dated 2026).

T1: recombinant human soluble gpNMB (recombinant human gpNMB-FLAG-His) (human, UniProt Q14956 23-498)
T1 sequence: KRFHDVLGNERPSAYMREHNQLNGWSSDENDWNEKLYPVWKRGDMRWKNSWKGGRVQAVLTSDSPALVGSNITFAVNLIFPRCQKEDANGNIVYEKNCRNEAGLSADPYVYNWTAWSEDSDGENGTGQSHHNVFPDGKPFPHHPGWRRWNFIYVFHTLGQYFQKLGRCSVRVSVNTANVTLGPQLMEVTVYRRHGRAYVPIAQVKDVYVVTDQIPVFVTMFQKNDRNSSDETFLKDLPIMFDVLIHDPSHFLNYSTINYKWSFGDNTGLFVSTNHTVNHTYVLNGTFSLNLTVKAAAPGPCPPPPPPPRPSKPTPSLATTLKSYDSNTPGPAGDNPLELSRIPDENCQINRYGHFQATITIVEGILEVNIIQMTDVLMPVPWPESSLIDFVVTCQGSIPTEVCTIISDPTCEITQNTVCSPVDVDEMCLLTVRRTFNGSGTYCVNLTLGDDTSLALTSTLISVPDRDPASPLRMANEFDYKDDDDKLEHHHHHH


Tests used:
[1] = biological target: T1, recombinant human soluble gpNMB …; assay: antigen ELISA
[2] = biological target: T1, recombinant human soluble gpNMB …; assay: antigen ELISA, vs hGPN18-2_H2L3

EC50 [1] [nM]	Relative binding activity [2]	Binder
18	0.07	hGPN18-2_H2L3 VL F94A (antibody, V domains shown) VH: QVQLVQSGPGLVQPTQTLTLTCSFSGFSLSTSVMGVGWIRQPSGKGLEWLADIWWDDDKDYNPSLKSRLTISKDTSKNQVVLTMTNMDTVDTATYYCARTYYSNYEYYGMDYWGQGTLVTVSS VL: DIVMTQSPDSLAVSLGERATINCRSSQTIILSNGNTYLEWYQQKPGQPPKLLIYKVSNRFSGVPDRFSGSGSGTDFTLTISSLQAEDVAVYYCAQGSHVPFTFGSGTKLEIKR
10.8	0.91	hGPN18-2_H2L3 VL G96A (antibody, V domains shown) VH: QVQLVQSGPGLVQPTQTLTLTCSFSGFSLSTSVMGVGWIRQPSGKGLEWLADIWWDDDKDYNPSLKSRLTISKDTSKNQVVLTMTNMDTVDTATYYCARTYYSNYEYYGMDYWGQGTLVTVSS VL: DIVMTQSPDSLAVSLGERATINCRSSQTIILSNGNTYLEWYQQKPGQPPKLLIYKVSNRFSGVPDRFSGSGSGTDFTLTISSLQAEDVAVYYCFQASHVPFTFGSGTKLEIKR
6.04	0.75	hGPN18-2_H2L3 VL I29A (antibody, V domains shown) VH: QVQLVQSGPGLVQPTQTLTLTCSFSGFSLSTSVMGVGWIRQPSGKGLEWLADIWWDDDKDYNPSLKSRLTISKDTSKNQVVLTMTNMDTVDTATYYCARTYYSNYEYYGMDYWGQGTLVTVSS VL: DIVMTQSPDSLAVSLGERATINCRSSQTAILSNGNTYLEWYQQKPGQPPKLLIYKVSNRFSGVPDRFSGSGSGTDFTLTISSLQAEDVAVYYCFQGSHVPFTFGSGTKLEIKR
4.1	1	hGPN18-2_H2L3 VL I30A (antibody, V domains shown) VH: QVQLVQSGPGLVQPTQTLTLTCSFSGFSLSTSVMGVGWIRQPSGKGLEWLADIWWDDDKDYNPSLKSRLTISKDTSKNQVVLTMTNMDTVDTATYYCARTYYSNYEYYGMDYWGQGTLVTVSS VL: DIVMTQSPDSLAVSLGERATINCRSSQTIALSNGNTYLEWYQQKPGQPPKLLIYKVSNRFSGVPDRFSGSGSGTDFTLTISSLQAEDVAVYYCFQGSHVPFTFGSGTKLEIKR
3.94	1	hGPN18-2_H2L3 VL G34A (antibody, V domains shown) VH: QVQLVQSGPGLVQPTQTLTLTCSFSGFSLSTSVMGVGWIRQPSGKGLEWLADIWWDDDKDYNPSLKSRLTISKDTSKNQVVLTMTNMDTVDTATYYCARTYYSNYEYYGMDYWGQGTLVTVSS VL: DIVMTQSPDSLAVSLGERATINCRSSQTIILSNANTYLEWYQQKPGQPPKLLIYKVSNRFSGVPDRFSGSGSGTDFTLTISSLQAEDVAVYYCFQGSHVPFTFGSGTKLEIKR
48.3	0.31	hGPN18-2_H2L3 VL K55A (antibody, V domains shown) VH: QVQLVQSGPGLVQPTQTLTLTCSFSGFSLSTSVMGVGWIRQPSGKGLEWLADIWWDDDKDYNPSLKSRLTISKDTSKNQVVLTMTNMDTVDTATYYCARTYYSNYEYYGMDYWGQGTLVTVSS VL: DIVMTQSPDSLAVSLGERATINCRSSQTIILSNGNTYLEWYQQKPGQPPKLLIYAVSNRFSGVPDRFSGSGSGTDFTLTISSLQAEDVAVYYCFQGSHVPFTFGSGTKLEIKR
5.69	0.8	hGPN18-2_H2L3 VL H98A (antibody, V domains shown) VH: QVQLVQSGPGLVQPTQTLTLTCSFSGFSLSTSVMGVGWIRQPSGKGLEWLADIWWDDDKDYNPSLKSRLTISKDTSKNQVVLTMTNMDTVDTATYYCARTYYSNYEYYGMDYWGQGTLVTVSS VL: DIVMTQSPDSLAVSLGERATINCRSSQTIILSNGNTYLEWYQQKPGQPPKLLIYKVSNRFSGVPDRFSGSGSGTDFTLTISSLQAEDVAVYYCFQGSAVPFTFGSGTKLEIKR
7.66	0.69	hGPN18-2_H2L3 VL F101A (antibody, V domains shown) VH: QVQLVQSGPGLVQPTQTLTLTCSFSGFSLSTSVMGVGWIRQPSGKGLEWLADIWWDDDKDYNPSLKSRLTISKDTSKNQVVLTMTNMDTVDTATYYCARTYYSNYEYYGMDYWGQGTLVTVSS VL: DIVMTQSPDSLAVSLGERATINCRSSQTIILSNGNTYLEWYQQKPGQPPKLLIYKVSNRFSGVPDRFSGSGSGTDFTLTISSLQAEDVAVYYCFQGSHVPATFGSGTKLEIKR
